Results as given in patent US12325863B2, “MDA-7/IL-24 secretory variants and methods of use” (Virginia Commonwealth University, priority 2018, dated 2025).

Assays:
[1] = Sabutoclax and BI-97D6 in combination with MDA-7/IL-24; settings: combined with MDA-7/IL-24; earlier observation referred to
Procedure: To test a multi-target approach for treatment of prostate cancer bone metastases, experiments were conducted to target Mcl-1 inhibition and investigate the effects on NG-mda-7/IL-24 efficacy. […] In addition to these inhibitors, three commercially available targeted inhibitors were evaluated to determine potential synergistic effects with MDA-7/IL-24. […] Next, the therapeutic effect of MDA-7/IL-24 protein in combination with BI-97D6 was tested, in male athymic nude mice injected by the intracardiac route with human prostate cancer PC3-ML cells, resulting in bone metastases.

[2] = tested on: human prostate cancer PC3-ML cells; assay: PC3-ML intracardiac bone metastasis model in athymic nude mice; assay type: in vivo; settings: single agent, versus control group
Procedure: To test a multi-target approach for treatment of prostate cancer bone metastases, experiments were conducted to target Mcl-1 inhibition and investigate the effects on NG-mda-7/IL-24 efficacy. Using NMR (nuclear magnetic resonance) and computational biology, two Mcl-1 inhibitors were identified (Sabutoclax and BI-97D6) and their activity was validated in immune competent mice in combination with MDA-7/IL-24. In addition to these inhibitors, three commercially available targeted inhibitors were evaluated to determine potential synergistic effects with MDA-7/IL-24. The three inhibitors were UMI-77 (showing selectivity to Mcl-1 over other members of the Bcl-2 family), Marinopyrrole A (selective inhibitor of Mcl-1), and A-1210477. […] Mcl-1 expression was elevated by 1.7-fold in RM1-BM (RM1-BM cells selected for enhanced metastasis to bone) as compared to RM1 cells, indicating functional relevance of Mcl-1 in this metastatic process. […] This further supported the cancer-specificity of specific Mcl-1 inhibitors. Next, the therapeutic effect of MDA-7/IL-24 protein in combination with BI-97D6 was tested, in male athymic nude mice injected by the intracardiac route with human prostate cancer PC3-ML cells, resulting in bone metastases.

SARI = SARI expression at the transcript level in transfected DU-145 cells; assay type: cell-based, human
Procedure: (§1) SARI expression was determined at the transcript level in DU-145 cells after transfection with the indicated plasmids. […] The protein expression of MDA-7/IL-24 from the conditioned media (FIG. 5) and cell lysates (FIG. 6) of HeLa cells transfected with full length MDA-7 and Insulin(sp)-MDA-7 was assayed.
(§2) Having an MDA-7/IL-24 construct with enhanced protein secretion as well as enhanced protein stability may be very valuable as a potential gene therapeutic for cancer. Accordingly, lysine 122 was mutated to arginine in the Insulin(sp)-MDA-7 construct using site-directed mutagenesis. […] PARP cleavage and the expression of GRP-78 were also assessed in DU-145 cells following transfection with MDA-7(sp)-MDA-7 (wild type MDA-7 signal peptide), Insulin(sp)-MDA-7, MDA-7(sp)-MDA-7(K122R) and Insulin(sp)-MDA-7(K122R) (FIG. 13).
(§3) PARP cleavage and the expression of GRP-78 were also evaluated in DU-145 cells following transfection with these four constructs, the results for which are shown in FIG. 20.

HeLa cells [3] = assay: MDA-7/IL-24 protein in conditioned media and lysates of transfected HeLa cells (Western blotting); assay type: cell-based, human
Procedure: as §1
(§4) Next, lysine 122 of MDA-7/IL-24 was converted to arginine by site directed mutagenesis using forward primer (5′-[…]-3′) (SEQ ID NO: 19) and reverse primer (5′-[…]-3′) (SEQ ID NO: 20). […] These enzymes are capable of reducing the tetrazolium dye MTT 3-(4,5-dimethylthiazol-2-yl)-2,5-diphenyltetrazolium bromide to its insoluble formazan, which has a purple color.

HeLa cells [4] = assay: MTT assay, HeLa cells treated with conditioned media from transfected HeLa cells; assay type: cell-based, human; settings: vs control conditioned media, FIG. 8
From the text: as §4

DU-145 cells [5] = assay: MTT assay, DU-145 cells treated with conditioned media from transfected HeLa cells; assay type: cell-based, human; settings: vs control conditioned media, FIG. 9
From the text: as §4

HeLa cells [6] = assay: MTT assay following transfection of HeLa cells with constructs; assay type: cell-based, human; settings: for proliferation (MTT): following transfection of HeLa cells, FIG. 14
From the text: as §4, §2, §3

DU-145 cells [7] = assay: ELISA of MDA-7/IL-24 protein in conditioned media of transfected DU-145 cells; assay type: cell-based, human; settings: DU-145 cells transfected; FIG. 10
Procedure: In an effort to enhance its anti-cancer activity, genetic engineering experiments were conducted to enhance MDA-7/IL-24 secretion. Five different signal peptides (abbreviated “sp”) were introduced, linked to MDA-7/IL-24, and assessed for protein secretion. The five signal peptides tested were endogenous human MDA-7/IL-24, human IL-2, human Insulin, Flt-3 and human BM40 (osteonectin/SPARC) signal peptides. The constructs were designated MDA-7(sp)-MDA-7 (wild type MDA-7 signal peptide), IL-2(sp)-MDA-7, Insulin(sp)-MDA-7, Flt-3(sp)-MDA-7 and BM40(sp)-MDA-7, respectively. Each of these constructs also included a Histidine-tag. These constructs were transfected into DU-145 cells (human prostate cancer cells).
The presence of MDA-7/IL-24 in the conditioned media was assessed by enzyme-linked immunosorbent assay (ELISA) and results are shown in FIG. 2.
as §2

DU-145 cells [8] = assay: MDA-7/IL-24 transcript level (RTQ-PCR) in transfected DU-145 cells; assay type: cell-based, human; settings: DU-145 cells transfected; FIG. 11
DU-145 cells [9] = assay: M4 protein in lysate and conditioned media of transfected DU-145 cells; assay type: cell-based, human; settings: K122R versus Flt-3(sp)-M4, FIG. 22
From the text: (§5) As noted in Example 1, improvements were obtained by mutating lysine at position 122 to arginine in full-length MDA-7/IL-24. The corresponding lysine was identified in M4 and mutated to arginine using site directed mutagenesis using forward primer (5′-[…]-3′) (SEQ ID NO: 19) and reverse primer (5′-[…]-3′) (SEQ ID NO: 20). Next, Flt-3(sp)-M4 and Flt-3(sp)-M4(K122R) were transfected into DU-145 cells. […] The conditioned media from transfected IM-PHFA (immortalized primary human fetal astrocytes) cells was added to DU-145 cells and MTT assays were performed (FIG. 24).

DU-145 cells [10] = assay: MTT assay, DU-145 cells treated with conditioned media from transfected IM-PHFA cells; assay type: cell-based, human; settings: compared to the control, FIG. 24
From the text: as §5

DU-145 cells [11] = assay: M4 expression in conditioned media of transfected DU-145 cells (ELISA); assay type: cell-based, human; settings: compared to the other 3 signal peptides, FIG. 17
Procedure: To determine if different sequence motifs could enhance the secretion of M4 over Flt-3(sp)-M4, three additional signal peptides linked to M4 were introduced and protein secretion was assessed. The four signal peptides tested were endogenous human MDA-7/IL-24, human IL-2, human Insulin, and Flt-3 signal peptides. The constructs were designated MDA-7(sp)-M4 (wildtype MDA-7/IL-24 secretory peptide), IL-2(sp)-M4, Insulin(sp)-M4, and Flt-3(sp)-M4, respectively, and a schematic illustration is shown in FIG. 16. Each of these constructs also included a Histidine-tag. These constructs were transfected into DU-145 cells and assessed for expression of M4 in the conditioned media (FIG. 17) and at the transcript level (FIG. 18). An MDA-7/IL-24 antibody and RT-Q-PCR primers able to detect M4 were used to assess M4 expression.
as §3

Q: For BI-97D6 [reference compound], which antitumor synergy [1] is on record?
A: Its antitumor synergy is “antitumor synergy”.

Q: What about the bone metastases [2] of the same molecule?
A: The bone metastases was “statistically significant inhibition of bone metastases”.

B1: Insulin(sp)-MDA-7: human Insulin signal peptide linked to MDA-7/IL-24, Histidine-tag; encoded by SEQ ID NO: 6 (protein)
chain: MALWMRLLPLLALLALWGPDPAAAHHHHHHENLYFQGMQEFHFGPCQVKGVVPQKLWEAFWAVKDTMQAQDNITSARLLQQEVLQNVSDAESCYLVHTLLEFYLKTVFKNYHNRTVEVRTLKSFSTLANNFVLIVSQLQPSQENEMFSIRDSAHRRFLLFRRAFKQLDVEAALTKALGEVDILLTWMQKFYKL
Q: With B1 as the molecule, how does the “SARI expression at the transcript level” value (SARI; DU-145 cells, five signal peptide MDA-7 constructs, FIG. 4) read?
A: The value was “highest SARI expression”.

Q: What about the MDA-7/IL-24 protein secretion (HeLa cells [3]; HeLa cells, versus full length MDA-7, FIGS. 5, 6) of the same molecule?
A: The MDA-7/IL-24 protein secretion was “dramatic increase in MDA-7/IL-24 protein secretion”.

Q: What about the “proliferation (MTT)” value (HeLa cells [4]) of the same molecule?
A: Its value is “decrease in proliferation”.

Q: What about the “proliferation (MTT)” value (DU-145 cells [5]) of the same molecule?
A: The value was “decrease in proliferation”.

Q: And the “proliferation (MTT)” value (HeLa cells [6])?
A: The value was “decrease in proliferation”.

B2: Insulin(sp)-MDA-7(K122R): insulin signal peptide fused to the K122R mutation variant of MDA-7/IL-24; encoded by SEQ ID NO: 11 (protein)
chain: MALWMRLLPLLALLALWGPDPAAAHHHHHHENLYFQGMQEFHFGPCQVKGVVPQKLWEAFWAVKDTMQAQDNITSARLLQQEVLQNVSDAESCYLVHTLLEFYLKTVFRNYHNRTVEVRTLKSFSTLANNFVLIVSQLQPSQENEMFSIRDSAHRRFLLFRRAFKQLDVEAALTKALGEVDILLTWMQKFYKL
Q: For B2, which “MDA-7/IL-24 expression in the conditioned media using ELISA” value (DU-145 cells [7]) is on record?
A: The value was “enhanced MDA-7/IL-24 expression”.

Q: And the “MDA-7/IL-24 expression at the transcript level using RTQ-PCR” value (DU-145 cells [8])?
A: Its value is “enhanced MDA-7/IL-24 expression”.

Q: What about the “SARI induction at the transcript level” value (SARI; compared to Insulin(sp)-MDA-7 or MDA-7 containing K122R, FIG. 12) of the same molecule?
A: The value was “highest SARI induction”.

Q: What about the “proliferation (MTT)” value (HeLa cells [6]) of the same molecule?
A: Its value is “decrease in proliferation”.

B3: Flt-3(sp)-M4(K122R): Flt-3(sp)-M4 with the corresponding lysine mutated to arginine; encoded by SEQ ID NO: 16 (protein)
chain: MTVLAPAWSPTTYLLLLLLLSGSESCYLVHTLLEFYLKTVFRNYHNRTVEVRTLKSFSTLANNFVLIVSQLQPSQENEMFSIRDSAHRRFLLFRRAFKQLDVEAALTKALGEVDILLTWMQRFYKLGGSHHHHHH
Q: With B3 as the molecule, how does the “protein in cell lysates” value (DU-145 cells [9]) read?
A: The value was “increase in protein”.

Q: What about the “protein in the conditioned media” value (DU-145 cells [9]) of the same molecule?
A: Its value is “increase in protein”.

Q: What about the “cell growth (MTT)” value (DU-145 cells [10]) of the same molecule?
A: The value was “cell growth suppression”.

B4: Flt-3(sp)-M4: Flt-3 signal peptide linked to M4; encoded by SEQ ID NO: 14 (protein)
chain: MTVLAPAWSPTTYLLLLLLLSGSESCYLVHTLLEFYLKTVFKNYHNRTVEVRTLKSFSTLANNFVLIVSQLQPSQENEMFSIRDSAHRRFLLFRRAFKQLDVEAALTKALGEVDILLTWMQKFYKLGGSHHHHHH
Q: For B4, which “cell growth (MTT)” value (DU-145 cells [10]) is on record?
A: The value was “cell growth suppression”.

B5: MDA-7(sp)-MDA-7(K122R): MDA-7/IL-24 with lysine 122 converted to arginine; encoded by SEQ ID NO: 10 (protein, UniProt Q13007 1-206, looked up, variant K122R)
chain: MNFQQRLQSLWTLARPFCPPLLATASQMQMVVLPCLGFTLLLWSQVSGAQGQEFHFGPCQVKGVVPQKLWEAFWAVKDTMQAQDNITSARLLQQEVLQNVSDAESCYLVHTLLEFYLKTVFRNYHNRTVEVRTLKSFSTLANNFVLIVSQLQPSQENEMFSIRDSAHRRFLLFRRAFKQLDVEAALTKALGEVDILLTWMQKFYKL
modifications: full-length
Q: With B5 as the molecule, how does the “protein in the conditioned media by Western blotting” value (HeLa cells [3]; HeLa cells transfected, FIG. 5) read?
A: Its value is “increase in protein”.

Q: And the “protein in cell lysate by Western blotting” value (HeLa cells [3]; HeLa cells transfected, FIG. 6)?
A: Its value is “increase in protein”.

Q: And the “proliferation (MTT)” value (HeLa cells [4])?
A: Its value is “decrease in proliferation”.

Q: And the “proliferation (MTT)” value (DU-145 cells [5])?
A: The value was “decrease in proliferation”.

Q: What about the “proliferation (MTT)” value (HeLa cells [6]) of the same molecule?
A: Its value is “decrease in proliferation”.

B6: Insulin(sp)-M4: human Insulin signal peptide linked to M4; encoded by SEQ ID NO: 12 (protein)
chain: MALWMRLLPLLALLALWGPDPAAAHHHHHHENLYFQGMESCYLVHTLLEFYLKTVFKNYHNRTVEVRTLKSFSTLANNFVLIVSQLQPSQENEMFSIRDSAHRRFLLFRRAFKQLDVEAALTKALGEVDILLTWMQKFYKL
Q: What does the source list for B6?
A: SARI expression (SARI; DU-145 cells, four signal peptide M4 constructs, FIG. 19): highest SARI expression; growth (MTT) (HeLa cells [6]; M4 constructs, transfection of HeLa cells, FIG. 21): growth suppression; M4 protein secretion (DU-145 cells [11]): enhanced M4 protein secretion to a greater extent
